Substitutions are numbered along the chain they refer to. Numbers in names are those of the source.
B1: FKBP-168: FKBP13 DRD-AcGFP construct of Table 10 (protein)
chain: HCPIKSRKGDVLHAHYTGKLEDGTEFDSSLPRNQPFVFSLGWGRRIKGWDQGLLGMCEGEKRKLVIPSELGYGERGWPPKIPGGATLVFEVELLKIER
modifications: Description of sequence: Construct Name: FKBP-168; Mutation(s): Q72R T82W Q84R A117W DRD M54A V85R
B2: FKBP-171 (protein)
chain: B1 chain with D10L, W42T, R44E, R45V
modifications: Description of sequence: Construct Name: FKBP-171; Mutation(s): Q72R Q84E A117W DRD M54A D50L
B3: FKBP-170 (protein)
chain: B1 chain with R44E
modifications: Description of sequence: Construct Name: FKBP-170; Mutation(s): Q72R T82W Q84E A117W DRD M54A V85R
B4: FKBP-181 (protein)
chain: B1 chain with D10L, W42T, R44E
modifications: Description of sequence: Construct Name: FKBP-181; Mutation(s): Q72R Q84E A117W V85R DRD M54A D50L
B5: FKBP-189 (protein)
chain: B1 chain with H13G, R32L, W42T, R44E
modifications: Description of sequence: Construct Name: FKBP-189; Mutation(s): Q72R Q84E A117W V85R DRD M54A H53G R72L
B6: FKBP-172 (protein)
chain: B1 chain with W42T, R44E, R45V, M56W
modifications: Description of sequence: Construct Name: FKBP-172; Mutation(s): Q72R Q84E A117W DRD M54A M96W
B7: FKBP-182 (protein)
chain: B1 chain with W42T, R44E, M56W
modifications: Description of sequence: Construct Name: FKBP-182; Mutation(s): Q72R Q84E A117W V85R DRD M54A M96W
B8: FKBP-185 (protein)
chain: B1 chain with D10A, T17I, W42T, R44E, I96L
modifications: Description of sequence: Construct Name: FKBP-185; Mutation(s): Q72R Q84E A117W V85R DRD M54A D50L T57I I136L
B9: FKBP-186 (protein)
chain: B1 chain with W42T, R44E, G76E
modifications: Description of sequence: Construct Name: FKBP-186; Mutation(s): Q72R Q84E A117W V85R DRD M54A G116E
B10: FKBP-187 (protein)
chain: B1 chain with L40G, W42T, R44E
modifications: Description of sequence: Construct Name: FKBP-187; Mutation(s): Q72R Q84E A117W V85R DRD M54A L80G
B11: FKBP-177 (protein)
chain: B1 chain with L40G, W42T, R44E, R45V
modifications: Description of sequence: Construct Name: FKBP-177; Mutation(s): Q72R Q84E A117W DRD M54AL80G
B12: FKBP-178 (protein)
chain: B1 chain with F38S, W42T, R44E, R45V
modifications: Description of sequence: Construct Name: FKBP-178; Mutation(s): Q72R Q84E A117W DRD M54AF78S
B13: FKBP-169 (protein)
chain: B1 chain with R44E, R45V
modifications: Description of sequence: Construct Name: FKBP-169; Mutation(s): Q72R T82W Q84E A117W DRD M54A
B14: FKBP-188 (protein)
chain: B1 chain with F38S, W42T, R44E
modifications: Description of sequence: Construct Name: FKBP-188; Mutation(s): Q72R Q84E A117W V85R DRD M54A F78S

system: Jurkat cells; assay: Tacrolimus dose response of FKBP13-AcGFP-mCherry constructs stably transduced into Jurkat cells, GFP MFI by flow cytometry; assay type: cell-based; parameters: Basal: unit not given here; conditions: FIG. 44
Procedure, shortened: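 GFP geometric MFI was read by flow cytometry in mCherry+ cells and curve-fitted against tacrolimus dose. Cells were Jurkat E6-1, lentivirus-transduced with FKBP13-AcGFP-mCherry fusion constructs until 10-25% mCherry-positive on day 5 post-transduction.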

| Molecule | Basal | FC |
| --- | --- | --- |
| B1 | 72.7 | 60.19 |

same assay, conditions: FIG. 44; at 10 uM

| Molecule | At 10 uM |
| --- | --- |
| B1 | 4376 |

same assay, conditions: read-out: Tacrolimus EC90 (Norm); tacrolimus; normalized; Table 14

| Molecule | EC90 [µM] |
| --- | --- |
| B1 | 0.351 |
| B2 | 10.1 |
| B3 | 0.138 |
| B4 | 5.06 |
| B5 | 30.1 |
| B6 | 1.31 |
| B7 | 0.928 |
| B8 | 23.4 |
| B9 | 21 |
| B10 | 21.3 |
| B11 | 23.9 |
| B12 | 28.4 |
| B13 | 0.493 |
| B14 | 20.8 |

same assay, conditions: read-out: Tacrolimus EC90; tacrolimus; Table 14

| Molecule | EC90 [µM] |
| --- | --- |
| B1 | 0.342 |
| B2 | 8.16 |
| B3 | 0.133 |
| B4 | 14.1 |
| B5 | 25.8 |
| B6 | 1.05 |
| B7 | 0.819 |
| B8 | 22.1 |
| B9 | 17.9 |
| B10 | 14.5 |
| B11 | 18.7 |
| B12 | 22.3 |
| B13 | 0.448 |
| B14 | 16.6 |

same assay, conditions: tacrolimus; fold change; Table 14

| Molecule | Tacrolimus FC |
| --- | --- |
| B1 | 60.2 |
| B2 | 60.3 |
| B3 | 47.6 |
| B4 | 52 |
| B5 | 23 |
| B6 | 63.1 |
| B7 | 64.9 |
| B8 | 40.2 |
| B9 | 19 |
| B10 | 24 |
| B11 | 22.3 |
| B12 | 36.4 |
| B13 | 50.1 |
| B14 | 20.5 |

system: Jurkat cells; assay: Sirolimus (rapamycin) dose response of FKBP13 constructs stably transduced into Jurkat cells, flow cytometry; assay type: cell-based; conditions: rapamycin; Table 14; read-out: Rapamycin EC90
Procedure: Normalized EC50 values were calculated from the mCherry normalized GFP MFI values, which accounted for any differences in mCherry intensity between samples.

| Molecule | EC90 [µM] |
| --- | --- |
| B1 | 1.39 |
| B2 | 16 |
| B3 | 0.785 |
| B4 | 11.8 |
| B5 | 5.47 |
| B6 | 2.14 |
| B7 | 3.84 |
| B8 | 5.34 |
| B9 | 5.87 |
| B10 | 5.31 |
| B11 | 5.28 |
| B12 | 16.8 |
| B13 | 1.39 |
| B14 | 5.41 |

same assay, conditions: rapamycin; fold change; Table 14

| Molecule | Rapamycin FC |
| --- | --- |
| B1 | 18 |
| B2 | 14.1 |
| B3 | 16.1 |
| B4 | 15.5 |
| B5 | 2.5 |
| B6 | 21.3 |
| B7 | 21.5 |
| B8 | 2 |
| B9 | 1.7 |
| B10 | 2.3 |
| B11 | 2.3 |
| B12 | 2.9 |
| B13 | 10.8 |
| B14 | 2.6 |

same assay, conditions: rapamycin; normalized; Table 14; read-out: Rapamycin EC90 (Norm)

| Molecule | EC90 [µM] |
| --- | --- |
| B1 | 1.33 |
| B2 | 18 |
| B3 | 0.818 |
| B4 | 11.5 |
| B5 | 5.53 |
| B6 | 2.29 |
| B7 | 4.11 |
| B8 | 22 |
| B9 | 5.22 |
| B10 | 5.66 |
| B11 | 6.33 |
| B12 | 151 |
| B13 | 1.42 |
| B14 | 5.83 |

system: not listed separately; assay: Example 4: dose response of FKBP constructs 160-255, Ec50, Ec90 and fold change (raw and normalized to mCherry); assay type: cell-based; conditions: FKBP constructs 160-255; not normalized; read-out: EC90
Procedure: Additional experiments were performed for constructs FKBP-160-292.

| Molecule | EC90 [µM] |
| --- | --- |
| B1 | 0.342 |
| B2 | 8.16 |
| B3 | 0.133 |
| B4 | 14.1 |
| B5 | 25.8 |
| B6 | 1.05 |
| B7 | 0.819 |
| B8 | 22.1 |
| B9 | 17.9 |
| B10 | 14.5 |
| B11 | 18.7 |
| B12 | 22.3 |
| B13 | 0.448 |
| B14 | 16.6 |

same assay, conditions: fold change during initial analysis

| Molecule | FC (fold change) |
| --- | --- |
| B1 | 60.2 |
| B2 | 60.3 |
| B3 | 47.6 |
| B4 | 52.0 |
| B5 | 23.0 |
| B6 | 63.1 |
| B7 | 64.9 |
| B8 | 40.2 |
| B9 | 19.0 |
| B10 | 24.0 |
| B11 | 22.3 |
| B12 | 36.4 |
| B13 | 50.1 |
| B14 | 20.5 |

same assay, conditions: normalized to mCherry; read-out: EC90 (Norm)

| Molecule | EC90 [µM] |
| --- | --- |
| B1 | 0.351 |
| B2 | 10.1 |
| B3 | 0.138 |
| B4 | 5.06 |
| B5 | 30.1 |
| B6 | 1.31 |
| B7 | 0.928 |
| B8 | 23.4 |
| B9 | 21 |
| B10 | 21.3 |
| B11 | 23.9 |
| B12 | 28.4 |
| B13 | 0.493 |
| B14 | 20.8 |

— US20250186614A1, “COMPACT DRUG RESPONSIVE DOMAINS FOR REGULATION OF FUNCTION/ABUNDANCE AND DELIVERY OF POLYPEPTIDE PAYLOADS” (OBSIDIAN THERAPEUTICS, INC., priority 2022, published 2025)
